In patent US20230338524A1:

Assays:
mouse VEGFR2 (mouse) = mouse VEGFR2 (mouse) (UniProt P35918); assay: Blocking ELISA, panel 'mVEGF-mVEGFR2'; blocked ligand murine VEGF; antibody titrated (Log (M))
[1] = target: soluble murine VEGFR2 (murine) (UniProt P35918); assay: ELISA, OD450, panel 'mVEGFR2', antibody titrated (Log (M))
Chain of soluble murine VEGFR2 (murine) (P35918 20-762 limits assumed): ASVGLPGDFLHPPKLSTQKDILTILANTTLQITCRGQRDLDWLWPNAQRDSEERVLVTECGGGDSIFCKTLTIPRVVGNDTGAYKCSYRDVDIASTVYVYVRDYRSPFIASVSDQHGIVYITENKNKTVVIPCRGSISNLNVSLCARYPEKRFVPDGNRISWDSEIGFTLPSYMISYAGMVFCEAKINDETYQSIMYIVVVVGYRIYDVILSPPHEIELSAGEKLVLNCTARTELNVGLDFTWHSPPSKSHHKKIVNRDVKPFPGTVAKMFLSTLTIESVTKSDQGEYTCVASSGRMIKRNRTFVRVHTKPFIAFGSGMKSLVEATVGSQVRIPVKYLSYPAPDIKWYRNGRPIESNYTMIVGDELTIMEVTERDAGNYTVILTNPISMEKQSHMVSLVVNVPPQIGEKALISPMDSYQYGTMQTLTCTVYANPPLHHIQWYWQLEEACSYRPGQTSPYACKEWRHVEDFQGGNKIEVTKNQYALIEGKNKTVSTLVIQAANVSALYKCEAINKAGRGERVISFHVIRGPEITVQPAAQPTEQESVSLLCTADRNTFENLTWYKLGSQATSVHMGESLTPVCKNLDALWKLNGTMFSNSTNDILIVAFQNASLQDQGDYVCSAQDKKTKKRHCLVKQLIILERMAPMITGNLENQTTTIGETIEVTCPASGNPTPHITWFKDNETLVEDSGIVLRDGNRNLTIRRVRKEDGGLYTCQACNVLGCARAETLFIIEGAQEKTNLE

Chain of mouse VEGFR2 (mouse) (P35918 20-762 limits assumed): as above

B1: DC101 (a murine monoclonal Ab that binds to murine VEGFR2) (antibody, from another filing, V domains shown)
VH: EVQLVETGGGLVQPGNSLKLSCATSGFIFSTTWMNWIRQTPGKRLEWLAQIEDKSNNYFISYSESVKGRFTISRDDSKSSVYLQMNNLKEEDTAIYYCSWKYRSNYYFDYWGQGVMVTVSS
VL: DIVLTQSPALAVSLEQRATISCKTSQNVDYYGISYLHWYQQKPGQQPKLLIYEGSNLASGIPARFSGSGSGTDFTLTIDPVEADDIVTYYCQQSKDYPYTFGAGTKLELKR
Question: Which IC50 (read off the curve) (mouse VEGFR2 (mouse)) does the source give for B1 here?
Answer: The IC50 (read off the curve) was 0.5 nM.

Question: What about the EC50 (read off the curve) [1] of the same binder?
Answer: Its EC50 (read off the curve) is 0.3 nM.
